As usually defined, the Kd is the free concentration of one partner at which half of the binding sites on the other are occupied at equilibrium, for simple one-to-one binding.

The assay has as its target recombinant human MXRA8-Fc fusion protein (UniProt Q9BRK3). As to conditions: 37 °C; n = 2; parent: est. 19; read off a plot.
With “Ross River virus T48, CPER-recovered wild type, purified virus (E1/E2 envelope glycoproteins on the virion) E2:A71D”, the Kd worked out at 110 nM.
The result for “Ross River virus T48, CPER-recovered wild type, purified virus (E1/E2 envelope glycoproteins on the virion) E1:P226A” reads 20 nM.
Take “Ross River virus T48, CPER-recovered wild type, purified virus (E1/E2 envelope glycoproteins on the virion) E2:H64A”: the Kd stood at 61 nM.
The result for “Ross River virus T48, CPER-recovered wild type, purified virus (E1/E2 envelope glycoproteins on the virion) E1:S98A” reads 30 nM; that for “Ross River virus T48, CPER-recovered wild type, purified virus (E1/E2 envelope glycoproteins on the virion) E1:N141Q”, 61 nM.

The values are drawn from publication PMC8187723.
